From patent EP4596580A1 (Staidson (Beijing) Biopharmaceuticals Co., Ltd., dated 2025)
Residue numbers refer to the chain shown, from its start. Read-outs that look alike come from different tables or passages of the source.

T1: His-human LIGHT (human)
T1 construct: also called His-huLIGHT; free LIGHT
T1 chain: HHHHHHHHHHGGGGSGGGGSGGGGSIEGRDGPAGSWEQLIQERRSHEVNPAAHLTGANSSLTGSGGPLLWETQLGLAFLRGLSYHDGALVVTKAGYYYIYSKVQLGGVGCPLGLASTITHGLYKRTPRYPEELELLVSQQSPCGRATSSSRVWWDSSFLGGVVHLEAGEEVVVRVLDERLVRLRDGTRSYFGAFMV

T2: His-mouse LIGHT (mouse)
T2 construct: also called His-musLIGHT
T2 chain: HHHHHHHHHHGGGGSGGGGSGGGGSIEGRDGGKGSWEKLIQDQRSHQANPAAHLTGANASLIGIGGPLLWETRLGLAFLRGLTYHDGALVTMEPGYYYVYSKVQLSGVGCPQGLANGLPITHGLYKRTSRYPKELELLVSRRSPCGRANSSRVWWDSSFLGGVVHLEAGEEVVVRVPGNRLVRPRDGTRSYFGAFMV

T3: His-cynomolgus monkey LIGHT (cynomolgus monkey)
T3 construct: also called His-cynoLIGHT
T3 chain: T1 chain with P32H, A33G, E47Q, V48N, S83D, V91A, T92N, S149N, A167V

B1: hum_LT-m58-4 (antibody, human IgG4, V domains shown)
VH: QVQLVQSGAEVKKPGASVKVSCKASGYTFIDHIMNWVRKAPGQGLEWMGRIYPVSGETNYNQKFMGRATFTVDRSTSTVYMELSSLRSEDTAVYYCGRGSYYWNAMDYWGQGTLVTVSS
VL: EIVMTQSPATLSVSPGERATLSCKASQSVDFDGESYMNWYQQKPGQPPRLLIYSASNLESGIPARFSGSGSGTEFTLTISSLQSEDFAVYYCQQSIEDPWTFGQGTKLEIK
notes: humanized from LT-m58
B2: hum_LT-m58-3 (antibody, human IgG4, V domains shown)
VH: B1 VH
VL: DIVMTQSPDSLAVSLGERATINCKASQSVDFDGDSYMNWYQQKPGQPPKLLIYSASNLESGVPDRFSGSGSGTDFTLTISSLQAEDVAVYYCQQSIEDPWTFGQGTKVEIK
notes: humanized from LT-m58
B3: LT-m64 (antibody, human IgG4, V domains shown)
VH: EVKLEESGAELVKPGASVRLSCKTSGYTFTNYYVYWVKQRPGQGLEWIGEINPTNGDPNFNEKFKSKATLTVDKSSSTAYMHLSSLTSEDSAVYYCTRSNWDYGNAMDFWGQGTSVTVSS
VL: DIVMTQSPASLAVSLGQRATISCKASQSVDFDGDGYMNWYQQKPGQPPKLLIYKASHLDSGIPARFSASGSGTDFTLNIHPVEEEDAATYYCQQSIEDPFTFGSGTKLEIK
B4: LT-m55 (antibody, human IgG4, V domains shown)
VH: EVQLQQSGAELVKPGASVKLSCKASGYTFATYYMYWVKQRPGQGLEWIGEINPTNGGTIFNEKFKTKATLTVDKSSSTAYMQLSSLTSEDSAVYYCARGNWPYWSFDVWGAGTSVTVSS
VL: B3 VL with M4L, G35N, K54A, H57N, F100W, S104G
B5: LT-m85 (antibody, human IgG4, V domains shown)
VH: EVQLQQSGAELVKPGASVKMSCKASGYTFTSYNVHWVKQTPGQGLEWIGAVYPGNGDTSYNQKFKGKATLTADKSSNTAYMQLSSLTSEDSAVYYCARGSYYYTSSYFDHWGQGTTLTVSS
VL: B3 VL with M4L, G35S, K54T, H57N, D59E, S67T, A68G, I96Y
B6: LT-m58 (antibody, human IgG4, V domains shown)
VH: QVQLQQSGAEMASPGASVTLSCKASGYTFIDHIMNWVKKRPGQGLEWIGRIYPVSGETNYNQKFMGKATFSVDRSSSTVYMVLNSLTSEDPAVYYCGRGSYYWNAMDYWGQGTTLTVSS
VL: B3 VL with G35S, K54S, H57N, D59E, A68G, F100W, S104G
B7: hum_LT-m37-3 (antibody, human IgG4, V domains shown)
VH: QVQLVQSGAEVKKPGASVKVSCKASGYSFTGYFINWVRQAPGQGLEWIGRIYPYNVNTFYNQNFKGRATMTADKSTSTAYMELSSLRSEDTAVYYCGRGTHYYGSSGAMDYWGQGTLVTVSS
VL: EIVLTQSPATLSVSPGERATLSCKASQNVGTAVAWYQQKPGQSPRLLIYSASNRYTGIPARFSGSGSGTEFTLTISSLQSEDFAVYFCQQYSSYPYTFGGGTKVEIK
notes: humanized from LT-m37
B8: hum_LT-m37-2 (antibody, human IgG4, V domains shown)
VH: B7 VH with M70L
VL: B7 VL
notes: humanized from LT-m37
B9: hum_LT-m37-6 (antibody, human IgG4, V domains shown)
VH: B7 VH with M70L
VL: B7 VL with L4M
notes: humanized from LT-m37
B10: hum_LT-m37-1 (antibody, human IgG4, V domains shown)
VH: B7 VH with G44S, M70L
VL: B7 VL
notes: humanized from LT-m37
B11: hum_LT-m37-5 (antibody, human IgG4, V domains shown)
VH: B7 VH with G44S, M70L
VL: B7 VL with L4M
notes: humanized from LT-m37
B12: hum_LT-m37-4 (antibody, human IgG4, V domains shown)
VH: B7 VH with A68V
VL: B7 VL
notes: humanized from LT-m37

Tests used:
[1] = target: T1, His-human LIGHT; assay: ELISA, His-huLIGHT coated
[2] = target: T4, hFc-human LIGHT (human); assay: competition ELISA, LTβR-His coated, hFc-huLIGHT added
T4 construct: also called hFc-huLIGHT

[3] = target: T1, His-human LIGHT; assay: ELISA, His-huLIGHT coated
[4] = target: T1, His-human LIGHT; assay: cell-based or functional assay
[5] = target: T2, His-mouse LIGHT; assay: ELISA, His-musLIGHT coated
[6] = target: T1, His-human LIGHT; assay: SPR, Biacore 8K, antibody on CM5 chip
[7] = target: T3, His-cynomolgus monkey LIGHT; assay: SPR, Biacore 8K, antibody on CM5 chip
[8] = target: T3, His-cynomolgus monkey LIGHT; assay: ELISA, His-cynoLIGHT coated
[9] = target: T1, His-human LIGHT; assay: cell-based or functional assay
[10] = target: T1, His-human LIGHT; assay: cell-based or functional assay
[11] = target: LIGHT on the surface of HEK293-LIGHT stable cells (human, UniProt O43557 1-240); assay: cell-based or functional assay
[12] = target: T1, His-human LIGHT; assay: ELISA, His-huLIGHT coated
[13] = target: T4, hFc-human LIGHT; assay: competition ELISA, LTβR-His coated, hFc-huLIGHT added; remark: listed apart in the source
[14] = target: T1, His-human LIGHT; assay: SPR, Biacore 8K, antibody on CM5 chip, human LIGHT

Binder | EC50 [1] | IC50 [2] | EC50 [3] | IC50, HVEM NF-κB luciferase reporter (293T-HVEM-NF-κB-Luc), free LIGHT [4] | binding result [5] | Kd [6] | koff [6] | kon [6] | Kd [7] | koff [7] | kon [7] | EC50 [8] | IC50, HVEM NF-κB luciferase reporter, free LIGHT [9] | IC50, LTβR NF-κB luciferase reporter, free LIGHT [10] | IC50, LTβR NF-κB luciferase reporter, HEK293-LIGHT cells [11] | EC50 [12] | IC50 [13] | Kd [14] | koff [14] | kon [14]
B1 | 0.00617 nM | 0.208 nM | – | – | – | – | – | – | – | – | – | – | – | – | – | – | – | – | – | –
B2 | 0.0112 nM | 0.169 nM | – | – | – | – | – | – | – | – | – | – | – | – | – | – | – | – | – | –
B3 | – | – | 0.0112 µg/mL | 0.264 µg/mL | no binding | 0.0557 nM | 5.61e-05 s⁻¹ | 1.01e+06 M⁻¹ s⁻¹ | 0.0487 nM | 4.89e-05 s⁻¹ | 1e+06 M⁻¹ s⁻¹ | – | – | – | – | – | – | – | – | –
B4 | – | – | 0.0332 µg/mL | 0.264 µg/mL | no binding | 0.0685 nM | 6.01e-05 s⁻¹ | 877000 M⁻¹ s⁻¹ | 0.0613 nM | 5.86e-05 s⁻¹ | 956000 M⁻¹ s⁻¹ | – | – | – | – | – | – | – | – | –
B5 | – | – | 0.0121 µg/mL | 0.124 µg/mL | no binding | 0.0674 nM | 5.28e-05 s⁻¹ | 783000 M⁻¹ s⁻¹ | 0.0601 nM | 6.72e-05 s⁻¹ | 1.12e+06 M⁻¹ s⁻¹ | – | – | – | – | – | – | – | – | –
B6 | – | – | 0.0243 µg/mL | 0.318 µg/mL | no binding | 0.0696 nM | 2.67e-05 s⁻¹ | 385000 M⁻¹ s⁻¹ | 0.0347 nM | 1.24e-05 s⁻¹ | 357000 M⁻¹ s⁻¹ | – | – | – | – | – | – | – | – | –
B7 | – | – | – | – | – | – | – | – | – | – | – | 0.0554 nM | 0.0747 µg/mL | 0.399 µg/mL | 1.79 µg/mL | 0.0875 µg/mL | – | – | – | –
B8 | – | – | – | – | – | – | – | – | – | – | – | 0.0517 nM | 0.0918 µg/mL | 0.293 µg/mL | 3.54 µg/mL | 0.081 µg/mL | 0.0598 nM | – | – | –
B9 | – | – | – | – | – | – | – | – | – | – | – | 0.0588 nM | 0.0518 µg/mL | 0.224 µg/mL | 1.86 µg/mL | 0.0939 µg/mL | 0.0753 nM | 0.0408 nM | 5.25e-05 s⁻¹ | 1.29e+06 M⁻¹ s⁻¹
B10 | – | – | – | – | – | – | – | – | – | – | – | 0.0468 nM | 0.118 µg/mL | 0.269 µg/mL | 5.39 µg/mL | 0.0662 µg/mL | 0.0754 nM | – | – | –
B11 | – | – | – | – | – | – | – | – | – | – | – | 0.0513 nM | 0.062 µg/mL | 0.16 µg/mL | 2.22 µg/mL | 0.0837 µg/mL | 0.0771 nM | 0.0575 nM | 6.34e-05 s⁻¹ | 1.1e+06 M⁻¹ s⁻¹
B12 | – | – | – | – | – | – | – | – | – | – | – | 0.0527 nM | 0.0677 µg/mL | 0.129 µg/mL | 2.56 µg/mL | 0.0859 µg/mL | 0.0748 nM | 0.241 nM | 7.1e-05 s⁻¹ | 295000 M⁻¹ s⁻¹
